Drawing on patent publication US20220054630A1, this text covers Kd for seven substances.

The target of one test is sE2 wild-type (UniProt P27958). Put plainly: BLI.
The target in another test is Wild-type (UniProt P27958). The experiment in a line: BLI. A general note: BLI is a label-free optical method that tracks binding on a fibre tip over time.

Consider HCV1, for which the Kd (in general, the equilibrium constant for the complex coming apart) with sE2 wild-type was determined as 42 nM. On the same count and under the same terms, the same measure for HC84.1: 30 nM. With HC84.26.WH.5DL, the dissociation constant (Kd) in the test with sE2 wild-type and with Wild-type was 4.3 nM in each case.

For the substance CBH-4D, in the test with sE2 wild-type, the Kd amounted to 8.4 nM.

The substance HC33.1 came in with a dissociation constant Kd in the test with sE2 wild-type of 9.5 nM. The same measure, in the same setting: for HEPC74 the value was 5.1 nM. CBH-4G: the Kd in the test with sE2 wild-type and with Wild-type was 15 nM in each case.
